According to patent publication US20120164123:

Key:
[1] = system: human neutrophil peptide-1 (HNP-1)
[2] = system: mono-ADP-ribosylated HNP-1
mono-ADP-ribosylated HNP-1, sequence (chain, as listed by the source): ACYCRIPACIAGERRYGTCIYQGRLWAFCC

human neutrophil peptide-1 (HNP-1), sequence (chain, as listed by the source): as above

In the case of manganese-activated arginase, the “ornithine formation by arginase (amino acid analysis and MS)” value [1] is reported as “Identification of the products by amino acid analysis and MS identified ornithine only in the reaction that contained free arginine” and the “ornithine formation by arginase (amino acid analysis and MS)” value [2] is reported as “Identification of the products by amino acid analysis and MS identified ornithine only in the reaction that contained free arginine”.
